Source: the DeepSol protein solubility set

Test: soluble on expression in E. coli; label from the status in PepcDB or PDB records

| Sequence | soluble on expression in E. coli |
| --- | --- |
| MVPSRNGEGTELRGHMEIEKELALEKKTYGSHIKILILGGPLSGKSTIFKQMQIIHVDGFKTDQELIQYRGLIDNNIRDIYLQLIAGSRVVGIPLDPIEHITYEIDEIYAPMSDAFSVRTISELLEPLTEFWNSKQIQEIYKRRCEFELLDSTKYYLENLTRIADPTYLPNQEDIVHSRKATMSINSIVFEYTGVSLLMIDVGGQRSERKKWLHLFDDAKVVLFVIDLTGYAKRSEESRMELSRFPKFFRDVGSNAYDMKVALKIFNEVAAASALANAVFLLFFNKVDLFKEILSQVNLQPCFSKFDGENTYEETSKYICEKFIRAASSKKSVFPHFTTATNTENVKLVFRACMESVFKANAKATGLS | not soluble |
| MGSDKIHHHHHHMKRAVGDLIEETMDIVLANPRGFCAGVDRAIIIVEQALEKFGAPIYVRHEVVHNKFVVDDLKKKGAIFVEELDEVPAGNTVIFSAHGVSKDVRAEAEARGLQVFDATCPLVTKVHLEVAKMRASGKEIIMIGHKGHPEVEGTMGQAEGGMYLVESPEDVAMLEVKDPSQLAYVTQTTLSIDDAAAIVSALKAKFPEITPPRSDSICYATQNRQDAVKVMARDCDLVIVVGSPNSSNSNRLREVAQNQGVESYMVDNASFLDPAWIVGKKRIGVSAGASAPEVLVQEVINKLRALGAADVQELNGVVENVVFKIPRNLAEA | not soluble |
| MTTPSMEMYIEQIYMLIEEKGYARVSDIAEALAVHPSSVTKMVQKLDKDEYLIYEKYRGLVLTSKGKKIGKRLVYRHELLEQFLRIIGVDEEKIYNDVEGIEHHLSWNSIDRIGDLVQYFEEDDARKKDLKSIQKKTEHHNQ | soluble |
| MAELYVKPGNKERGWNDPPQFSYGLQTQTGGPKRTPLTKRVAAPQDGSPRAPETSGPPPVDHPPPSSKASRPPPMGSCPATGVEPPSSPVIESETLIEDVLRPLEQALEDCHGHTKKQVCDDISRRLVLLREQWAGGKLSIPVKKRMALLVQELLHHQWDAADDIHRSLMVDYVTEVSQWMVGVKRLIAEKRSLSSEETKEEKFTVEPENQTIPGFQQPS | not soluble |
| MKTWLPTSTAGSLPKPSWLAQPETLWSPWKLSSEELLAGKRDALRLSLDDQLRAGIDIVSDGEQTRQHFVTTFIEHLSGVDFAKREIVKIRNRYEASVPTVVGAVERQKPVFVEDARYLRQLTSQPIKWALPGPMTMIDTLYDNHYKSREKLAWEFAKILNQEAKELEAAGVDIIQFDEPAFNVFFDEVNDWGIAALERATEGLKCETAVHICYGYGIKANTDWKKTLGSEWRQYEEAFPQLQKSSLDIISLECHNSRVPMDLLELIRGKKVMVGAIDVASHAIETPEEVAGTLRKALAFVDADKLYPSTNCGMAPLPRHVATGKLHALSAGAEIIRRELAAK | not soluble |
| MGSDKIHHHHHHMFDPTLLHIINAHSRNPHYHKKFPIILFWSQKSGCTSLAKWFFYQIDLLQTALNYSPFIHNYEYDIYKNAPAYSLRLGIALREKQKETFKLVRNPYKRAVSSFVSLIAPPYIENPEWKPIRKFLYQDENSSKGLSFKQFLYYLLINGAQANSINPHFTQQYIADEEKYVTNYIYLENFNQDMKALEKRFELKTAPINEFSTSWHHQTPSMIYKGNFSESDITDPLFPRLPTFESFYDTECIQLVQTIFQNDFNTYKYSKEYPY | not soluble |
| MLEILYQDEWLVAVNKPSGWLVHRSWLDRDEKVVVMQTVRDQIGQHVFTAHRLDRPTSGVLLMGLSSEAGRLLAQQFEQHQIQKRYHAIVRGWLMEEAVLDYPLVEELDKIADKFAREDKGPQPAVTHYRGLATVEMPVATGRYPTTRYGLVELEPKTGRKHQLRRHLAHLRHPIIGDSKHGDLRQNRSGAEHFGLQRLMLHASQLSLTHPFTGEPLTIHAGLDDTWMQALSQFGWRGLLPENERVEFSAPSGQDGEISSLEHHHHHH | not soluble |
| SLNPLDSFKSQVEANVTGLGADKDIQALSRIWSRETNRNGYTYNYSWLGRPIIQYPQDIMAMQELIWSIQPDLIIETGIAHGGSLIFSASMLELNAISGGPQDAEVLGIDIDIRQHNREAIEAHPMVKRISMIQGSSIAPEIIEQVKAKAEGKQKILVCLDSNHTHDHVLAELEAYAPLTSVGSYCVVFDTVVEDLPDEMFGDRPWGVGNNPKTAVWEYLKTHPEFEIDKSIQHKLLITVAPDGYLKRLG | soluble |
| MSLRTSGSRLNSVRCASALTISGWKNNCVIEFDASGRIQSLREDSQSDVDLDLKGTVIAGIPNLHSHAHQKVITGLTEHRIAGQDDFWGWRELMYRANARLDPEQLQTIARYLYIDMLQKGYTSVAEFHYLHHQPDGTPYADLSEMSAQLLEAASEAGIAITLLPVLYCRGGFKDEPVQDSQHRFFNNPERYLALLESCHSLCANNPDRSLGFAAHSLRAVSPSAMSSTIEAAGPMLEGAPIHIHVAEQMREVNDCIEINGARPVAWLYDQCDVNDRWCLVHATHVDPQEQALLAQSGAIVGLCPTTEANLGDGIFPAAELMTNNGFLGVGSDSQVCTSPAEELRLLEYSQRFSLQRRTVLVPDEAGSNGRALTTAAIIGGNRARGEPLAGLQPGARGDLVEIGSDHVEFAGRSPDQVLDTWIFSGPDNPVQNVVAGGRHVVHDGVHPAMESASRAYREMVNALDLSEGHHHHHH | soluble |
| MGSDKIHHHHHHMREKIKLELERIEKENDVKILFAVESGSRVWGFPSKDSDYDVRFVYMHPVEWYLSIHDKRDVIEYPISDDLDISGWDIKKALQLFAKSNPALLEWIRSPIFYSKNSNFPEQLQQMSEKNFDPKATIYHYLHMASKNYREFLQGENVKLKKYFYVLRPILACKWLEEKTTLPPVEFDRLITELSIERSVLDEIEQLLIKKKAGTELDVGLKIEVLNQFLEEQIHYYQQYVKGIEKGSGIDIESLNTLFRDMLFAVYEKEHK | not soluble |
| PLRDVLDSNEFRDSKATLPIALGKDISGKPVIVDLAKMPHLLVAGSTGSGKSVGVNTMILSLLYRVQPEDVKFIMIDPKVVELSVYNDIPHLLTPVVTDMKKAANALRWCVDEMERRYQLLSALRVRNIEGFNEKIDEYEAMGMPVPNPIWRLGDTMDAMPPALKKLSYIVVIVDEFADLMMVAGKQIEELIARLAQKARAIGIHLILATQRPSV | not soluble |
| MNYWLMKSEPDEFSIEDLKARPNQTEPWFGIRNYQARNYMRDAMQIGDKVFFYHSSCKVPGIVGIAEVVTNAYPDSTAFDPESTYFDPKSDPSNPRWLRVDIRFVEQFKEIIPLSLIKSLPQLADMYLVSKGSRLSIQPVTAEQWQAVLMLSRLEHHHHHH | soluble |
| RNRQQRPGTIKHGSALDVLLSMGFPRARAQKALASTGGRSVQTACDWLFSH | soluble |
| MGSDKIHHHHHHVPSACRLSTCRFQDVCLSQIAAYWPARFTRTSEGVGKMAEMVTIKEADLIESVADALQYISYFHPMDYIRALGEAYKAEQGPAAKDAIAQILTNSRMCAEGHRPICQDTGIVNVFIEWGQDCRLESDLSLQDVVDEGVRRAYNNPDNKLRASVLADPAFTRRNTRDNTPCVLHVEMVKGNKVTVDVAAKGGGSENKSKFKMMNPSDSIVDWVIEMLPQMGAGWCPPGMLGIGIGGTAEHCVLLAKKALMEPIDMAQLKQRGPQTDIERLRIEIFDKVNALGIGAQGLGGLSTILDVKIMDAPCHAAGKPVAMIPNCAATRHAHFTLDGSGPTFLERPKLDEWPEVHWAPDSAARRVDLDTLTQEEVQSWKAGDRLLLNGKMLTGRDAAHKRIKDMLAKGEELPVDFKGRVIYYVGPVDPVRDEVVGPAGPTTATRMDSFSDTMLDLGLLASVGKAERGPAATQSIANHKSAYLMAVGGAAYLVARAIKEAKVVGFEDLGMEAIYEFTVEDMPVTVAVDSGGQNVHQLAPLVWKKKIAEEHLLPA | not soluble |
| MKKHHHHHHEDFHGIDIVINHRLKTSLEEGKVLEKTVPDLNNCKENYEFLIKWTDESHLHNTWETYESIGQVRGLKRLDNYCKQFIIEDQQVRLDPYVTAEDIEIMDMERERRLDEFEEFHVPERIIDSQRASLEDGTSQLQYLVKWRRLNYDEATWENATDIVKLAPEQVKHFQKK | soluble |
| AIAAMGRTTQFTLDEVAKHADKDSCWLVIDGKVYAVEKFLNEHPGGEDVLLETAGRDATREFEDVGHSKSAREQLKEFYIGDVREPTAEELAAKRAVQASAAAERRDGDGVRANGLGKERLFAGGAFGAEPLSGGSSTWTLLKRLFVPVCIAVLVYLVREYSKQVQTGG | soluble |
| MVLLDNADRVVLLTEKERPRGRKIDISLTFLLPHDNWFSVEDGVSDHYFSRRGFLRASLLGVLCLRGIGSALATEFLEESYPVGRLSLRNIHTGEHLSVTYRTPDGEVDLDALNSINWLLRCHFTNQHTEMDLAVIEYLNMVDKVLGGGREFRIISGYRSPEYNRILSEHNGAVAKQSLHMEGKAIDIAVPGVSLAVLRDLAAGFRCGGVGYYPHSGFVHLDSGRFRTW | not soluble |
| MNNLYRDLAPVTEAAWAEIELEAARTFKRHIAGRRVVDVSDPGGPVTAAVSTGRLIDVKAPTNGVIAHLRASKPLVRLRVPFTLSRNEIDDVERGSKDSDWEPVKEAAKKLAFVEDRTIFEGYSAASIEGIRSASSNPALTLPEDPREIPDVISQALSELRLAGVDGPYSVLLSADVYTKVSETSDHGYPIREHLNRLVDGDIIWAPAIDGAFVLTTRGGDFDLQLGTDVAIGYASHDTDTVRLYLQETLTFLCYTAEASVALSH | not soluble |
| MTATWSVNKKIFLQNAITVKNNQPLMAVVKNNAYHYDLEFAVTQFIHAGIDTFSTTSLREAIQIRQLAPDATIFLMNAVYEFDLVREHQIHMTLPSLTYYYNHKNDLAGIHVHLEFENLLHRSGFKDLNEIKEVLKDHHHNQNAKMIISGLWTHFGYADEFDVSDYNVERSQWMEIVEALLSEGYQFDLIHAQNSASFYREGQILLPHHTHARVGIALYGSRPYSSLNQHDIVQSLTLKAHVIQVREVQAGDYCGYSFAFEVTKNNTKLAVVDIGYGDGILRTRAKHEALINGKRYPIRALMMSHMFVEVDGNVHAQDEVILYNNDIRIDEYTFKGVGANSEQLSAMNHDSLKKEYISNDC | not soluble |
| MDRNLVQKGDAPPSKRSDPGTEFCVDIVVKGRKTEVPERFRKHVAEKLKLEKIQKLDGKVISLDVEVSKEPNPRQADRCDRVEITLRSRGPVIRAEAAASDPYAALDLAAEKLGARLRKQHDKRFSRRGARRISAAEVADHVPGAATLNGNGDVVPTEKQDGVPTKKIGSLEVQGDGPLVVREKTHVAAPMSLDQALYEMELVGHDFYLFVDSETKEPSVVYRRHAYDYGVIHLTTDTMVTQAHAPDAGDALGGLEHHHHHH | not soluble |
| MSKLGKQDVYYFEGLDDILIAMMTTKDAVGTEPAFGEVVRLPIATKLGIKGNGTALEKWASSKMFRRVSRETKHEIALDHVGIPIAVMDEIKGLIAQSGVTFGKNTAREFPYFAFGFIGNIENGGKKAVWYPKTQLSNVIDEEYTTAEDETKIDDVTANFVSTGLTYNNVMYSSFDSNRDSASIELFEKFIAQPVYDEEQWKKLAGPSRGGGSE | not soluble |
| MTYTLAILGCGVMGQALLSAIYNAPKAADETAAAFYPSKIITCNHDEPSAQQVTDLVETFDESPNGIKVESTYGHNVSAVEEASVVLLGTKPFLAEEVLNGVKSVIGGKLLISLAAGWTIDQLSQYTSTVCRVMTNTPAKYGYGCAVVSYSADVSKEQKPLVNELISQVGKYVELPEKNMDAATALVGSGPAFVLLMLESLMESGLKLGIPLQESKECAMKVLEGTVKMVEKSGAHPSVLKHQVCTPGGTTIAGLCVMEEKGVKSGIINGVEEAARVASQLGQKKK | soluble |
| MTTSIWKKLVTAVRGGASEVGESIADANAIRILDQEIRDADNALVKARDGLITIKAKHKLSAQRLEEHATSIANWEGRAMQALNKGEEALAVECASKIAEIEALRDQEQELADQFGKQVSLLQEQVIKAESRIKSLKQQVEMAKARETVQRARVATATATGGASGSVETAVGSLARLKQRQDEQDAKLEAAEELASQSSGSDLERRLQDAGIGAKSGGAQDVLARLKAKNQTPAQLEHHHHHH | not soluble |
